Legend:
E.G7-OVA [1] = assay: prophylactic efficacy of OVA / OVA257-264 vaccination, E.G7-OVA model; type: in vivo, C57/BL6 mice; design: anti-tumor activity / antigen specific efficacy / adjuvant activity following prophylactic vaccination: dose or concentration left out as unconfirmed
Description: Vaccinations. B6 mice were vaccinated subcutaneously (SC) with […] per injection. Dosing schedules were either q7dx2 or q4dx4 and are indicated in the individual figure legends. CFA mixtures were very viscous and had to be given with a larger gauge syringe. For humoral studies, a prime (day 0) and boost (day 14) strategy was used and blood samples were collected at various times by tail nicking.
Efficacy studies. E.G7-OVA or EL-4 thymoma cell lines were used throughout the study. These cells were cultured in vitro according to established methods. For tumor studies, 2.5×106 E.G7-OVA cells were injected subcutaneously in […] of PBS containing 1% FCS. Tumor measurements were made by repeated perpendicular measurements of tumor dimensions and using the formula: […]
Full-length OVA and the immunodominant cytotoxic T lymphocyte (CTL) peptide epitope (OVA257-264) were used to evaluate cell mediated immune responses and the prophylactic and therapeutic efficacy of OVA vaccination against the E.G7-OVA transfected cell line, using LNA both as an adjuvant and as the basis for a cancer vaccine formulation. LNA formulations for this experiment were prepared using DSPC:Chol:DODAP:PEGCer14 at a ration of 25:45:20:10
The anti-tumor activity of OVA and OVA257-264 were examined against the murine thymoma cell line, E.G7-OVA, implanted subcutaneously (SC) in C57/BL6 mice. […] Given the activity observed with the protein or peptide alone, this dose and schedule represents a useful model to evaluate adjuvants designed to boost the immune response against OVA and/or OVA257-264.
To examine LNA formulations as adjuvants, the impact of three variables were evaluated on vaccination and efficacy in the prophylactic E.G7-OVA model: (1) the activity of free vs. encapsulated ODN 1, (2) phosphodiester (PO) vs phosphorothioate (PS) ODN, and (3) full-length OVA protein vs single-epitope peptide OVA257-264 (FIGS. 30A and B). In this set of studies, free and encapsulated ODN 1 was simply mixed with antigen and administered SC near the nape of the neck. ODN and antigen doses in these studies were […], respectively.

E.G7-OVA [2] = assay: therapeutic efficacy of OVA vaccination, established E.G7-OVA tumors; type: in vivo, B6 mice; conditions: treatment q4d×4 once tumors had reached ~250 mm3
Text: Currently, the clinical objective is to generate a therapeutic host immune responses that can reduce the progression of established cancers. To evaluate the effect of vaccination on therapeutic efficacy in the E.G7-OVA model, B6 mice were implanted with E.G7-OVA cells and were subsequently treated with OVA, OVA +ODN 1 or OVA +LNA/ODN 1 on a q4d×4 schedule once the tumors had reached ˜250 mm3.

B1: OVA: Hen egg albumin (ovalbumin), full-length protein, model tumor-associated antigen (protein, UniProt P01012 1-386, looked up)
chain: MGSIGAASMEFCFDVFKELKVHHANENIFYCPIAIMSALAMVYLGAKDSTRTQINKVVRFDKLPGFGDSIEAQCGTSVNVHSSLRDILNQITKPNDVYSFSLASRLYAEERYPILPEYLQCVKELYRGGLEPINFQTAADQARELINSWVESQTNGIIRNVLQPSSVDSQTAMVLVNAIVFKGLWEKAFKDEDTQAMPFRVTEQESKPVQMMYQIGLFRVASMASEKMKILELPFASGTMSMLVLLPDEVSGLEQLESIINFEKLTEWTSSNVMEERKIKVYLPRMKMEEKYNLTSVLMAMGITDVFSSSANLSGISSAESLKISQAVHAAHAEINEAGREVVGSAEAGVDAASVSEEFRADHPFLFCIKHIATNAVLFFGRCVSP
modifications: full-length
notes: Hen egg albumin (ovalbumin), full-length protein, model tumor-associated antigen
- anti-tumor activity (E.G7-OVA [1]; antigen alone, once weekly vaccination, 2 injections): Anti-tumor activity was observed
- antigen specific efficacy / adjuvant activity following prophylactic vaccination (E.G7-OVA [1]; free or encapsulated ODN 1 mixed with OVA or OVA257-264, SC): dramatically improved immune responses and efficacy
- tumor growth of established tumors (E.G7-OVA [2]): no delay in tumor growth
